Measured values from the Human Domainome abundance scans (Beltran et al. 2025).
± gives the uncertainty stated by the source.

B1: Activity-dependent neuroprotector homeobox protein, residues 770 to 810; numbered along this chain, Q9H2P0 (parent)
chain: FLTKYFNKQPYPTRREIEKLAASLWLWKSDIASHFSNKRKK

Variants of: B1
Experiment: abundance fitness (aPCA) (normalised: wild type 0, dead -1); higher = more abundant; growth selection in yeast, the domain comes from the species named
Conditions: Homo sapiens

| Variant | abundance fitness |
| --- | --- |
| FLTKYFNKQPYPTRREIEKLAAFLWLWKSDIASHFSNKRKK [S23F] | -0.614 ± 0.13 |
| FLTKYFNKQPYPTRREIEKLAASLWLWKSDIASHFSNKRCK [K40C] | -0.097 ± 0.15 |
| FLTKYFNKQPYPTRRFIEKLAASLWLWKSDIASHFSNKRKK [E16F] | 0.304 ± 0.2 |
| FLTKYFNKQPYPTRREIEKLAASLWLWKSDIASVFSNKRKK [H34V] | 0.117 ± 0.051 |
| FLAKYFNKQPYPTRREIEKLAASLWLWKSDIASHFSNKRKK [T3A] | -0.303 ± 0.055 |
| FLTKYFNKQPYPTRREIEKLAASLWLWKSDIASHFSNKRGK [K40G] | -0.06 ± 0.058 |
| FLTKYFNKQPYPTRREIEKLAAYLWLWKSDIASHFSNKRKK [S23Y] | -0.364 ± 0.2 |
| FLTKYFIKQPYPTRREIEKLAASLWLWKSDIASHFSNKRKK [N7I] | -1.17 ± 0.2 |
| FLTKYFNKQPYPTRREIEKLAASLWLWKSDIASHFSNKRKQ [K41Q] | 0.153 ± 0.088 |
| FLTKYFNKQPYPTRREIEGLAASLWLWKSDIASHFSNKRKK [K19G] | -0.221 ± 0.06 |
| FLTKKFNKQPYPTRREIEKLAASLWLWKSDIASHFSNKRKK [Y5K] | -0.183 ± 0.28 |
| FLTKYFNKQPYPTRREIEKLAASLWLWKSDIADHFSNKRKK [S33D] | -0.267 ± 0.14 |
| FLTKYFNKQPYPTRREIEKLAASLWLWKSDIASHFSAKRKK [N37A] | -0.093 ± 0.052 |
| FLTKYFNKQPYPTRREIEKLAASLWLWKSDIASHFRNKRKK [S36R] | 0.087 ± 0.064 |
| FLTKYFNKQPYPTRREIEKLAASLWLWKSDIASHSSNKRKK [F35S] | -0.156 ± 0.049 |
| FLTKYFNKQPYPTRREIEKKAASLWLWKSDIASHFSNKRKK [L20K] | 0.036 ± 0.14 |
| FLTKYFMKQPYPTRREIEKLAASLWLWKSDIASHFSNKRKK [N7M] | -0.76 ± 0.12 |
| FLTKYFNKQPYPTRREIEKLHASLWLWKSDIASHFSNKRKK [A21H] | -0.413 ± 0.075 |
| FLTKYFNKQPYPTRREIEKLAASLWLWNSDIASHFSNKRKK [K28N] | -0.244 ± 0.076 |

| Variant | abundance fitness |
| --- | --- |
| FLTKYFNKQPYPTRREIEKLAASLWLWKSDQASHFSNKRKK [I31Q] | -0.116 ± 0.058 |
| FLTKYFNKQPYPTRREIEKLAASLWLWKSDIASHFSNKRKE [K41E] | -0.092 ± 0.084 |
| FLTKYFNKQPYPTRREIEKLAASLWLTKSDIASHFSNKRKK [W27T] | -0.152 ± 0.062 |
| FLTKYFNKQPYPTRREIEKLAASLWLWKSDIASHFSNKRKC [K41C] | -0.261 ± 0.1 |
| FLTKYFNKQPYPTRREIEKLAASLWLWESDIASHFSNKRKK [K28E] | -0.463 ± 0.085 |
| FLTKYFNKQPYPTRREIEKLAFSLWLWKSDIASHFSNKRKK [A22F] | -0.594 ± 0.077 |
| FLTKYFNKQPYPTRREIEKLAASLWLWKSDIASHFSNKRIK [K40I] | -0.27 ± 0.13 |
| FLTKYFNKQPYPTRREIEKLAAMLWLWKSDIASHFSNKRKK [S23M] | -0.36 ± 0.23 |
| FLTKYFNKQPYPTRREIEKLAASLWLWSSDIASHFSNKRKK [K28S] | 0.028 ± 0.052 |
| FLTKYFNKQPYPTSREIEKLAASLWLWKSDIASHFSNKRKK [R14S] | -0.387 ± 0.072 |
| FLTKYFNKQPYPTRREIEKLAASLWLWKFDIASHFSNKRKK [S29F] | -0.43 ± 0.2 |
| FDTKYFNKQPYPTRREIEKLAASLWLWKSDIASHFSNKRKK [L2D] | -0.822 ± 0.12 |
| NLTKYFNKQPYPTRREIEKLAASLWLWKSDIASHFSNKRKK [F1N] | -0.142 ± 0.32 |
| FLTCYFNKQPYPTRREIEKLAASLWLWKSDIASHFSNKRKK [K4C] | -0.698 ± 0.18 |
| FLGKYFNKQPYPTRREIEKLAASLWLWKSDIASHFSNKRKK [T3G] | -0.132 ± 0.053 |
| FLTKYFNKQPYPTRREIEKLAASLWLWKSDIASHVSNKRKK [F35V] | -0.063 ± 0.047 |
| FLTKYFNKQPYPTRREIEKLAASLWLWKSQIASHFSNKRKK [D30Q] | 0 ± 0.12 |
| FLTKYFNKQPYPTRREEEKLAASLWLWKSDIASHFSNKRKK [I17E] | -0.61 ± 0.11 |
| FLTKYFNKQPYPTRREIEKLAASLWLWKSDISSHFSNKRKK [A32S] | -0.196 ± 0.45 |

| Variant | abundance fitness |
| --- | --- |
| FLTKYFNKQPYPTRREIEKLAASLWLWKSDIASHFSNKRKP [K41P] | -0.188 ± 0.083 |
| FLTKYFNKQPYPTRREIPKLAASLWLWKSDIASHFSNKRKK [E18P] | -0.189 ± 0.068 |
| KLTKYFNKQPYPTRREIEKLAASLWLWKSDIASHFSNKRKK [F1K] | -0.36 ± 0.33 |
| FLTKYFNKQNYPTRREIEKLAASLWLWKSDIASHFSNKRKK [P10N] | 0.09 ± 0.078 |
| FLTKYFNKQPYPTRRKIEKLAASLWLWKSDIASHFSNKRKK [E16K] | 0.095 ± 0.13 |
| FLTKYFNKQPYPTRREIEKLAASLWLWKSDIASHFSNKNKK [R39N] | -0.012 ± 0.12 |
| FLTKYFNKQPYPTRRPIEKLAASLWLWKSDIASHFSNKRKK [E16P] | 0.159 ± 0.067 |
| FLTKYFNKQPYPTRRTIEKLAASLWLWKSDIASHFSNKRKK [E16T] | -0.065 ± 0.076 |
| FLTKYFNKQPYPTRRENEKLAASLWLWKSDIASHFSNKRKK [I17N] | -0.687 ± 0.14 |
| FLTSYFNKQPYPTRREIEKLAASLWLWKSDIASHFSNKRKK [K4S] | -0.749 ± 0.12 |
| FLTKYFNKQPYPTRREIEKLAASLWLWKSDFASHFSNKRKK [I31F] | -0.197 ± 0.07 |
| FLTKYFNKQPYPTRREIEKLAASLWLWKSDIASHFSNIRKK [K38I] | -0.182 ± 0.13 |
| FLTKYFNKQPYPTRREIEKLAASLWLWRSDIASHFSNKRKK [K28R] | -0.188 ± 0.049 |
| FLTKYFNKQPYPTRREIEKLAASLWLWVSDIASHFSNKRKK [K28V] | 0.508 ± 0.06 |
| FLTKYFNKQPYPTRREIEKLAASLWLWKSDGASHFSNKRKK [I31G] | -0.129 ± 0.072 |
| FLTKYFNKQPYPTRREIDKLAASLWLWKSDIASHFSNKRKK [E18D] | -0.109 ± 0.15 |
| FLTKYFNKQPYPTRREIEKTAASLWLWKSDIASHFSNKRKK [L20T] | -0.106 ± 0.076 |
| FLTKYFNKQEYPTRREIEKLAASLWLWKSDIASHFSNKRKK [P10E] | 0.158 ± 0.081 |
